Experimental data as given in paper PMC7921634.
pKd: −log10 of the molar value.

Key:
[1] = biological target: S-Trimer (ectodomain of wild-type SARS-CoV-2 Spike protein fused to Trimer-Tag) (SARS-CoV-2 | human) (UniProt P0DTC2); assay: negative-stain electron microscopy; S-Trimer 25 μg/mL in PBS adjusted to pH 5.5; 1% uranyl formate pH 4.0; FEI Tecnai spirit, 120 KeV
[2] = biological target: ACE2-Fc (soluble human ACE2 fused to human IgG Fc) (human) (UniProt Q9BYF1); assay: BLI; ForteBio Octet QKe; ACE2-Fc (10 µg/mL) immobilized on Protein A biosensors; 2-fold serial dilutions of S-Trimer (22.5–36 µg/mL in PBS); KD by steady state analysis, 1:1 binding model
[3] = biological target: S-Trimer (ectodomain of wild-type SARS-CoV-2 Spike protein fused to Trimer-Tag) (SARS-CoV-2 | human) (UniProt P0DTC2); assay: SDS-PAGE under non-reducing and reducing conditions

Sequence of ACE2-Fc (soluble human ACE2 fused to human IgG Fc) (human) (Q9BYF1 18-738): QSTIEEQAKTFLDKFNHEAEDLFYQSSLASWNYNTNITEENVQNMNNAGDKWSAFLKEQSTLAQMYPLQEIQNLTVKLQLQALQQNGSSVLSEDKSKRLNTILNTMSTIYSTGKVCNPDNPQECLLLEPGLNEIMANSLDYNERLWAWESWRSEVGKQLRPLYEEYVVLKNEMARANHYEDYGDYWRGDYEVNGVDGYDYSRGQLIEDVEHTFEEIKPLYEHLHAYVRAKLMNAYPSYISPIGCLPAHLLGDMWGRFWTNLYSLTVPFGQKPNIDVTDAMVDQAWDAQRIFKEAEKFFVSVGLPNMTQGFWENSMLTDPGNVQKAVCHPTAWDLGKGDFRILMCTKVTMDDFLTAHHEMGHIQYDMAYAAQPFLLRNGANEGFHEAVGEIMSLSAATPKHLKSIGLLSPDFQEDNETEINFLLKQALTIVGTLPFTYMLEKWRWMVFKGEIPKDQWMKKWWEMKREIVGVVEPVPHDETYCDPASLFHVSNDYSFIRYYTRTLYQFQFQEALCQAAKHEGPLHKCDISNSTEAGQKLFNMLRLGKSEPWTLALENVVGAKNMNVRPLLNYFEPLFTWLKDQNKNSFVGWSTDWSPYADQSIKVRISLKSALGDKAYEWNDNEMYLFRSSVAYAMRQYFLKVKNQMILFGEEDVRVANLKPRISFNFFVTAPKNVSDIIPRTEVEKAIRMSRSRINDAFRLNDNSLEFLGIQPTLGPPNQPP

S-Trimer (ectodomain of wild-type SARS-CoV-2 Spike protein fused to Trimer-Tag) (from UniProt P0DTC2;P02452)
stoichiometry N [1]: 3
pKd [2]: 8.88
stoichiometry N [3]: 3
